Experimental data taken from US20200181677A1, “SCREENING SYSTEM AND METHODS FOR IDENTIFYING ENZYME SUBSTRATES AND MODULATORS OF ENZYME ACTIVITY” (Regents of the University of Minnesota, priority 2017, published 2020).
Entries after “also recorded” stand apart in the source; their conditions may differ.

How the values were obtained:
[1] = target: T1, PKCα catalytic domain (Homo sapiens, UniProt P17252); assay: Kinase activity assay (ATP consumption, Kinase-Glo Max); format: biochemical; details: for Kinase activity toward the peptide substrate, in words: 500 μM peptide, isolated catalytic domain
T1 construct: All activity assays were performed with 50 nM isolated catalytic domain in PKC Buffer; fused substrate peptide with the fluorophore next to it (N, cleaved yes); second fluorophore of the mCerulean/mCitrine pair (next to the catalytic domain) (N); FLAG; made in house; host or cells: Sf9 insect cells (pBiex1), then on-resin TEV cleavage
Protocol: All activity assays were performed with 50 nM isolated catalytic domain in PKC Buffer at 21-22° C. for 2-6 minutes. Experiments comparing the basal activity of different FRET sensors (FIG. 5A) were performed with 50 μM MBP peptide from GenScript. For all other activity experiments (FIGS. 3F, 4B, 5B, and 6B), the final peptide concentration was 500 μM. Activity was measured by monitoring ATP consumption with the Kinase-Glo Max Luminescence Assay Kit (Promega; Madison, Wis.). End-point luminescence was measured in white, 96-well plates using a M5e Spectramax spectrophotometer (Molecular Devices; San Jose, Calif.). For each experimental condition, ≥2 independent experiments were performed for ≥3 protein preparations (N≥6).
Kinase specific activity was inferred from the ATP consumed in phosphorylation reactions using the KINASE-GLO® Max Luminescence Assay Kit (Promega; Madison, Wis.). ATP depletion was monitored with the KINASE-GLO® Reagent, which uses luciferin, oxygen, and ATP as substrates in a reaction that produces oxyluciferin and light. The luminescent signal is linearly proportional to the amount of ATP remaining following the phosphorylation reaction.
Activity assays were performed using the catalytic domain (25-75 nM) and 500-μM peptide in PKC Buffer. Reactions were initiated by the addition of 250 μM ATP to a total reaction volume of 80 μL in U-bottom, white 96-well plates. Following a 3 minute incubation at 22° C., reactions were quenched and subsequent steps were performed as per instructions from the kit provider. End-point luminescence was measured in a FLEXSTATION® 3 plate reader (Molecular Devices). […] For each experimental condition, ≥2 independent measurements were performed for ≥3 protein preparations (N≥6).

[2] = target: T1, PKCα catalytic domain; assay: Time-resolved fluorescence decay (TCSPC) of peptide-catalytic domain FRET sensors; format: binding; details: means ± SEM, N = 3; for Mol Fraction Bound / Mol Fraction Unbound: eGFP/mCherry sensors, PKC Buffer containing 100 μM ATP; for Mol Fraction Bound: A2/(A1+A2); for τ2: second lifetime of bi-exponential fit, τ1 fixed to donor linker control (2.56 ± 0.01 ns)
Protocol: FIG. 4A is a graph plotting a comparison between steady-state FRET and fractional binding for four alanine-containing peptide sensors. For fractional binding, fluorescence decay single photon counting data was fit to I(t)=A1e^−t/τ^1+A2e^−t/τ^2, where τ1 was set to the lifetime of a 10 nm ER/K linker control (see, TABLE 1). The mol fraction of the bound state(s) was calculated as A2/(A1+A2).
Time-resolved fluorescence decay measurements were taken by single photon counting (SPC-130-EM, Becker & Hickl) using a 485 nm sub-nanosecond pulse diode laser (PicoQuant), a 519 bandpass filter, and a PMH-100 photomultiplier module (Photonics Solutions) (Autry et al., J. Biol. Chem. 287:39070-39082, 2012). Sensors contained the eGFP and mCherry FRET pair, and all experiments were performed with 50-100 nM protein in PKC Buffer containing 100 μM ATP and 0.1 mg/mL BSA. Data were fit to the second exponential decay, I(t)=A1e^−t/τ^1+A2e^−t/τ^2, where τ1 was set to the lifetime of a 10 nm ER/K linker control. Each experimental condition was collected from three independent protein batches (N=3).
Time-correlated single photon counting (TCSPC) was used to test whether changes in steady-state FRET reflect changes in fractional binding of the peptide to the catalytic domain (FIG. 1). TCSPC is a method for measuring time-resolved fluorescence that provides information on complex decay kinetics and population states (Lakowicz, Principles of Fluorescence Spectroscopy, 3rd ed., Springer, New York, 2006). Using this method, the relative population of interacting to non-interacting species was measured for four peptide sensors displaying a range of steady-state FRET ratios (FIG. 2).

[3] = target: T1, PKCα catalytic domain; assay: Steady-state FRET measurements of peptide sensors; format: binding; details: for Binding strength of the peptide to the catalytic domain (steady-state FRET ratio), in words: 10 nm ER/K linker sensors; for Peptide interaction with the catalytic domain on addition of nucleotide (ΔFRET): 100 μM compound, alanine-substituted peptide sensors
Protocol: All experiments were performed with 30-50 nM protein in PKC Buffer at 21-22° C. Samples were prepared in tubes pre-coated with 0.1 mg/mL BSA to limit protein sticking to tube walls. Protein samples were excited at 430 nm (mCer) with an 8-nm band pass, and emission monitored from 450 to 650 nm. The FRET ratio was calculated from the ratio of the emission for mCit (525 nm) to mCer (475 nm). Final concentrations of 100 μM ATP, 100 μM ADP, 100 μM Sangivamycin, or BimI were added as indicated. For each experimental condition, ≥3 independent protein batches were used and at least two replicates were measured for each independent experiment (N≥3).
Protein-protein interactions in live cells using SPASM FRET sensors have been extensively monitored as described elsewhere (Sivaramakrishnan and Spudich, supra; Swanson et al., supra; and Malik et al., J Biol. Chem. 288:17167-17178, 2013). FRET measurements provide a direct measure of the binding strength of the substrate peptides to the kinase catalytic domain (Sivaramakrishnan and Spudich, supra; and Sommese et al., J. Biol. Chem. 292:2873-2880, 2017). Before each experiment, purified sensors were centrifuged (17645 g, 4° C.) to remove any insoluble protein. All experiments were performed with 50 nM protein in PKC Buffer at 21-22° C. Samples were prepared in tubes pre-coated with BSA (0.1 mg/ml) to limit protein loss through adsorption to tube walls. FRET measurements were performed using FluoroMax-4 fluorometer (Horiba Scientific). Sensors were loaded in a quartz cuvette (1 cm path length) and excited at 430 nm with an 8-nm band pass, and emission was monitored (4-nm band pass) from 450 to 650 nm. The FRET ratio was calculated from the ratio of the emission for mCitrine (525 nm) to mCerulean (475 nm). For each experimental condition, ≥2 experimental replicates were measured for ≥3 independent protein batches (N≥6).

1: peptide substrate ADKRRSVRIGA, SEQ ID NO:4, from Kit/SCRF; Ala-substituted in FRET sensors [Peptide 1]
Kinase activity toward the peptide substrate, in words [1]: high activity

2: peptide substrate RVVGGSLRGAQ, SEQ ID NO:6, from PTP1B [Peptide 2]
Kinase activity toward the peptide substrate, in words ([1]; listed as p2): high kinase activity

3: peptide substrate LAGGFSFKKNK, SEQ ID NO:8, from MARCKS (KLAGFSFKKNK) [Peptide 3]
Kinase activity toward the peptide substrate, in words [1]: high activity

6: peptide substrate ASQKRPSQRH, SEQ ID NO:14, from Myelin Basic Protein; Ala-substituted in FRET sensors [Peptide 6]
Mol Fraction Bound [2]: 0.08 ± 0.01
Mol Fraction Unbound [2]: 0.92 ± 0.01
τ2 [2]: 0.49 ± 0.05 ns

8: peptide substrate IVRKATLRRLL, SEQ ID NO:18, from EGF Receptor; Ala-substituted sensor form SEQ ID NO:17 [Peptide 8]
Mol Fraction Bound [2]: 0.11 ± 0.01
Mol Fraction Unbound [2]: 0.89 ± 0.01
τ2 [2]: 0.66 ± 0.06 ns
Binding strength of the peptide to the catalytic domain (steady-state FRET ratio), in words [3]: medium binding

9: peptide substrate ARKRERTYSFGHHA, SEQ ID NO:20, Optimized AKT Sub. [Peptide 9]
Binding strength of the peptide to the catalytic domain (steady-state FRET ratio), in words [3]: medium binding

10: peptide substrate RRRRSIIFI, SEQ ID NO:22, Optimized PKA Sub.; Ala-substituted in FRET sensors [Peptide 10]
Mol Fraction Bound [2]: 0.16 ± 0.01
Mol Fraction Unbound [2]: 0.84 ± 0.01
τ2 [2]: 0.83 ± 0.06 ns
Kinase activity toward the peptide substrate, in words [1]: poor activity

11: peptide substrate FKLKRKGTFKKFA, SEQ ID NO:35, Optimized PKCβ Sub.; Ala-substituted sensor form SEQ ID NO:23 [Peptide 11]
Mol Fraction Bound [2]: 0.15 ± 0.01
Mol Fraction Unbound [2]: 0.85 ± 0.01
τ2 [2]: 0.88 ± 0.06 ns
Kinase activity toward the peptide substrate, in words [1]: poor activity
Activity of the peptide FRET sensor for the same substrate ([1]; 10 nm linker sensors, 50 μM MBP peptide): much lower activity

12: peptide substrate RRFKRQGSFFYFF, SEQ ID NO:26, Optimized PKCζ Sub. [Peptide 12]
Kinase activity toward the peptide substrate, in words ([1]; listed as p12): lowest kinase activity; also recorded: poor activity
Effect on catalytic turnover with low affinity-high activity peptide #6 ([1]; equimolar peptides #6 and #12): essentially inhibited

Nc1ncnc2c1ncn2[C@@H]1O[C@H](COP(=O)(O)OP(=O)(O)O)[C@@H](O)[C@H]1O [ADP, reference compound]
Peptide interaction with the catalytic domain on addition of nucleotide (ΔFRET) [3]: also occurred

Nc1ncnc2c1ncn2[C@@H]1O[C@H](COP(=O)(O)OP(=O)(O)OP(=O)(O)O)[C@@H](O)[C@H]1O [ATP, reference compound]
Peptide interaction with the catalytic domain on addition of nucleotide (ΔFRET) [3]: significant increase

CN(C)CCCn1cc(C2=C(c3c[nH]c4ccccc34)C(=O)NC2=O)c2ccccc21 [BimI, Bisindolylmaleimide I, reference compound]
Effect on the ATP-dependent substrate-kinase interaction (steady-state FRET) ([3]; peptide #8 and #11 sensors, 100 μM ATP, BimI titration): abrogated

NC(=O)c1cn([C@@H]2O[C@H](CO)[C@@H](O)[C@H]2O)c2ncnc(N)c12 [Sangivamycin, reference compound]
Peptide interaction with the catalytic domain on addition of nucleotide (ΔFRET) [3]: also occurred

NRFARKGALRQKNV [Peptide 14]
Inhibition of ATP turnover of the catalytic domain for serine-containing peptide #14 ([1]; equimolar competing peptide): significantly better at inhibiting catalytic activity
Binding strength of the peptide to the catalytic domain (steady-state FRET ratio), in words [3]: bound more strongly

NRFARKGDLRQKNV [Peptide S14D]
Binding strength of the peptide to the catalytic domain (steady-state FRET ratio), in words [3]: decreased affinity
